Molecular target: CRBN/DDB1 complex (human | , UniProt Q96SW2 1-442; Q16531 1-1140, CoraFluor-1 label (on the complex, chain not told))
Assay: FRET; TR-FRET competitive displacement of thal-FITC

B1: UROD with C-terminal cyclic imide (recombinant UROD incubated with PCMT1) (natural protein)
chain: MEANGLGPQGFPELKNDTFLRAAWGEETDYTPVWCMRQAGRYLPEFRETRAAQDFFSTCRSPEACCELTLQPLRRFPLDAAIIFSDILVVPQALGMEVTMVPGKGPSFPEPLREEQDLERLRDPEVVASELGYVFQAITLTRQRLAGRVPLIGFAGAPWTLMTYMVEGGGSSTMAQAKRWLYQRPQASHQLLRILTDALVPYLVGQVVAGAQALQLFESHAGHLGPQLFNKFALPYIRDVAKQVKARLREAGLAPVPMIIFAKDGHFALEELAQAGYEVVGLDWTVAPKKARECVGKTVTLQGNLDPCALYASEEEIGQLVKQMLDDFGPHRYIANLGHGLYPDMDPEHVGAFVDAVHKHSRLLRQN
modifications: C-terminal cyclic imide on the C-terminal asparagine (N367), confirmed by mass spectrometry
Which Kd does the source give for B1 here?
The Kd was 1.5 µM.
